Test results published in article PMC7498355, “A quantitative binding model for the Apl protein, the dual purpose recombination-directionality factor and lysis-lysogeny regulator of bacteriophage 186”.

Columns and labels:
Settings in all cases: protein: recombinant; label: 32P end label on one strand; blunt
Apl [1] = target: T1, Apl (bacteriophage 186, UniProt P21681 1-87); experiment: EMSA; apparent Kd (50% DNA unbound); EMSA: 50 mM Tris-HCl pH 7.5, 0.1 mM EDTA, 10% glycerol, 150 mM NaCl, on ice >=30 min, gel at 4 C; bending in TEG 50; footprint: same Tris/EDTA/glycerol with 75
T1 sequence: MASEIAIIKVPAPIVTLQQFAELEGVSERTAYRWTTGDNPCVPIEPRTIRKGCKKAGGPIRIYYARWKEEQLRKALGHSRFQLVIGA

Apl [2] = target: T1, Apl; experiment: EMSA; up to 6400 nM Apl; EMSA: 50 mM Tris-HCl pH 7.5, 0.1 mM EDTA, 10% glycerol, 150 mM NaCl, on ice >=30 min, gel at 4 C; bending in TEG 50; footprint: same Tris/EDTA/glycerol with 75
Apl [3] = target: T1, Apl; experiment: EMSA; two retarded bands; EMSA: 50 mM Tris-HCl pH 7.5, 0.1 mM EDTA, 10% glycerol, 150 mM NaCl, on ice >=30 min, gel at 4 C; bending in TEG 50; footprint: same Tris/EDTA/glycerol with 75
Apl [4] = target: T1, Apl; experiment: EMSA; multiple shifted species; EMSA: 50 mM Tris-HCl pH 7.5, 0.1 mM EDTA, 10% glycerol, 150 mM NaCl, on ice >=30 min, gel at 4 C; bending in TEG 50; footprint: same Tris/EDTA/glycerol with 75
Apl [5] = target: T1, Apl; experiment: EMSA; pattern similar to central five pR-pL operators; EMSA: 50 mM Tris-HCl pH 7.5, 0.1 mM EDTA, 10% glycerol, 150 mM NaCl, on ice >=30 min, gel at 4 C; bending in TEG 50; footprint: same Tris/EDTA/glycerol with 75

B1: Apl 3 (111) (dsDNA)
DNA 1: TTGATGGCAAGTGTTGGCAAACAGAGTCAAATCA
DNA 2: TGATTTGACTCTGTTTGCCAACACTTGCCATCAA
Apl [1]
  Kd: ~0.8 µM

B2: Apl 7 (dsDNA)
DNA 1: TATTTTGGCTAAACCCACGCAATTGATGGCAAGTGTTGGCAAACAGAGTCAAATCAATTGCAAACTTTGGCTAATAGG
DNA 2: CCTATTAGCCAAAGTTTGCAATTGATTTGACTCTGTTTGCCAACACTTGCCATCAATTGCGTGGGTTTAGCCAAAATA
Apl [1]
  Kd: ~0.275 µM

B3: Apl 2 (two pR-pL operators) (dsDNA)
DNA 1: TTGATGGCAAGTGTTGGCAAACAG
DNA 2: CTGTTTGCCAACACTTGCCATCAA
Apl [2]
  binding result: no binding

B4: Apl 4 (dsDNA)
DNA 1: TTGATGGCAAGTGTTGGCAAACAGAGTCAAATCAATTGCAAACTT
DNA 2: AAGTTTGCAATTGATTTGACTCTGTTTGCCAACACTTGCCATCAA
Apl [3]
  binding result: binds

B5: Apl 5 (dsDNA)
DNA 1: AACCCACGCAATTGATGGCAAGTGTTGGCAAACAGAGTCAAATCAATTGCAAACTT
DNA 2: AAGTTTGCAATTGATTTGACTCTGTTTGCCAACACTTGCCATCAATTGCGTGGGTT
Apl [3]
  binding result: binds

B6: Apl 6 (dsDNA)
DNA 1: TATTTTGGCTAAACCCACGCAATTGATGGCAAGTGTTGGCAAACAGAGTCAAATCAATTGCAAACTT
DNA 2: AAGTTTGCAATTGATTTGACTCTGTTTGCCAACACTTGCCATCAATTGCGTGGGTTTAGCCAAAATA
Apl [4]
  binding result: binds

B7: Apl 101 (dsDNA)
DNA 1: TGATGGCAAGTGTCTTAGGACAGAGTCAAATCA
DNA 2: TGATTTGACTCTGTCCTAAGACACTTGCCATCA
Apl [2]
  binding result: no binding

B8: Apl 1101 (dsDNA)
DNA 1: AACCCACGCAATTGATGGCAAGTGTCTTAGGACAGAGTCAAATCA
DNA 2: TGATTTGACTCTGTCCTAAGACACTTGCCATCAATTGCGTGGGTT
Apl [2]
  binding result: no binding

B9: Apl 10101 (dsDNA)
DNA 1: AACCCACGCAATTGACTTAGGGTGTTGGCAAACAGCTTAGGATCAATTGCAAACTT
DNA 2: AAGTTTGCAATTGATCCTAAGCTGTTTGCCAACACCCTAAGTCAATTGCGTGGGTT
Apl [2]
  binding result: no binding

B10: attP 5 (dsDNA)
DNA 1: ATCATTGACATAGATTGCCATTGTTTGCCAATAATTACCTATTATTCGCCATTTC
DNA 2: GAAATGGCGAATAATAGGTAATTATTGGCAAACAATGGCAATCTATGTCAATGAT
Apl [5]
  binding result: binds
